Reference: patent US20260125455A1 (CLEVELAND CLINIC FOUNDATION, published 2026)

Legend:
[1] = target: T1, human complement protein C6 (human, UniProt P13671 22-934); test: C6-binding ELISA, A650 nm; sample 'C6-depleted human serum' (28 days at 37 C)
T1 construct: also called human C6; C6 antigen
Experimental: (§1) For the serum stability assessment, samples of the purified candidate antibodies are normally incubated in mouse, human and cynomolgus serum at 37 C for 28 days and then tested in an antigen-binding ELISA. Since the anti-C6 antibodies are expected to bind to both human and cynomolgus C6 but not mouse C6, we anticipated that incubating in human or cynomolgus sera would reduce ELISA binding due to occupation of the antibody binding sites by C6 protein from the sera. Therefore, the chimeric and humanized antibodies were tested with human and mouse sera and with human sera from which the C6 protein has been depleted. The C6-binding ELISA was then used to compare the binding abilities of the C601 antibodies that had been incubated in the 3 different sera to antibody samples that were incubated in PBS at 37 C or kept at 4 C (non-incubated).
(§2) The Uncle instrument (Unchained Labs) was used to monitor unfolding via intrinsic fluorescence and aggregation by static light scattering across a temperature gradient to obtain melting temperatures (Tₘ). […] Isoelectric points were determined by capillary isoelectric focusing using a PA800+ (Beckman Coulter). […]

[2] = target: T1, human complement protein C6; test: ELISA, expression supernatant, anti-human kappa detection
Experimental: The chimeric molecules, MoC601 HuG4K and MoC601 HuG1KFab, were tested for C6 binding in the form of expression supernatants. In this experiment, the human molecules were detected with an HRP-conjugated goat anti-human kappa chain reagent, which gave relative low signals. However, the binding of both chimeric molecules to C6 was confirmed. The EC₅₀ value for MoC601 HuG4K (0.43 nM) was higher than that of the mouse antibody (0.07 nM), though this was lower than in previous experiments. A further experiment was performed to find a more suitable anti-human antibody detection reagent. MoC601 HuG4K from expression supernatant was detected with three different secondary antibodies. Both anti-human IgG Fc-specific and Fab-specific detection gave higher signals than the anti-kappa chain reagent but the Fc-specific detection yielded a very low EC₅₀ (0.03 nM).

[3] = target: T1, human complement protein C6; test: C6-binding ELISA, A650 nm; sample 'PBS, non-incubated' (kept at 4 C)
Experimental: as §1, §2

[4] = target: T1, human complement protein C6; test: C6-binding ELISA, A650 nm; sample 'mouse serum' (28 days at 37 C)
Experimental: as §1, with “The C6-binding ELISA was then used to compare the binding abilities of the C601 antibodies that had been incubated in the 3 different sera to antibody samples that were incubated in PBS at 37 C or kept at 4 C (non-incubated).” left out
Binding ELISAs used Nunc Maxisorp 384-well plates, wells coated with C6, C5b,6 complex or C5 (Complement Technology Inc, TX) and goat anti-human IgG (Fab specific) peroxidase secondary antibodies (Sigma-Aldrich, A0293) for detection. For the thermal stability assay, IgG supernatants were diluted to their EC₈₀ concentration, incubated at different temperatures for 10 min and C6 binding measured by ELISA with the binding signal plotted against temperature. Kinetics of C6 binding were measured by capturing antibodies from supernatant samples using Protein G biosensors and performing a 20 min association step with 2.5 nM C6 and a 20 min dissociation step using the Octet RED96. […]

[5] = target: T1, human complement protein C6; test: BLI (Octet RED384), antibody on Protein G biosensors, C6 0.16-10 nM, 1:1 fit, experiment 1
Experimental: The binding of the purified chimeric molecules, MoC601 HuG4K and MoC601 HuG1KFab, was also confirmed by ELISA, where the anti-human IgG (Fab-specific) secondary reagent was used. The control mouse antibody bound as previously (EC₅₀ 0.11 nM). The EC₅₀ for purified MoC601 HuG4K (0.27 nM) was similar to that obtained for the MoC601 HuG4K supernatant sample above. […] The EC₅₀ value for the Fab molecule (0.48 nM) was higher than for the antibody, which would be expected since the Fab is unable to bind bivalently to the antigen on the well. A C6-binding assay was also set up on the Octet RED384 instrument. […] However, MoC601 MoG1K could be stably loaded onto anti-mouse Fc (AMC) biosensors. Concentrations of the mouse and chimeric antibodies were adjusted to give similar levels of loading on to the AMC and
Protein G biosensors respectively in subsequent experiments. There was no non-specific binding of C6 protein to unloaded sensors or sensors loaded with an isotype control antibody. A full kinetic experiment was run for purified MoC601 MoG1K and MoC601 HuG4K antibodies using seven concentrations of C6 (0.16-10 nM) and association and dissociation steps of 20 and 15 minutes respectively. The mouse and chimeric datasets were processed by subtracting the no antigen controls and the data were fitted to a 1:1 binding model. […]

T1 sequence (P13671 22-934 limits assumed): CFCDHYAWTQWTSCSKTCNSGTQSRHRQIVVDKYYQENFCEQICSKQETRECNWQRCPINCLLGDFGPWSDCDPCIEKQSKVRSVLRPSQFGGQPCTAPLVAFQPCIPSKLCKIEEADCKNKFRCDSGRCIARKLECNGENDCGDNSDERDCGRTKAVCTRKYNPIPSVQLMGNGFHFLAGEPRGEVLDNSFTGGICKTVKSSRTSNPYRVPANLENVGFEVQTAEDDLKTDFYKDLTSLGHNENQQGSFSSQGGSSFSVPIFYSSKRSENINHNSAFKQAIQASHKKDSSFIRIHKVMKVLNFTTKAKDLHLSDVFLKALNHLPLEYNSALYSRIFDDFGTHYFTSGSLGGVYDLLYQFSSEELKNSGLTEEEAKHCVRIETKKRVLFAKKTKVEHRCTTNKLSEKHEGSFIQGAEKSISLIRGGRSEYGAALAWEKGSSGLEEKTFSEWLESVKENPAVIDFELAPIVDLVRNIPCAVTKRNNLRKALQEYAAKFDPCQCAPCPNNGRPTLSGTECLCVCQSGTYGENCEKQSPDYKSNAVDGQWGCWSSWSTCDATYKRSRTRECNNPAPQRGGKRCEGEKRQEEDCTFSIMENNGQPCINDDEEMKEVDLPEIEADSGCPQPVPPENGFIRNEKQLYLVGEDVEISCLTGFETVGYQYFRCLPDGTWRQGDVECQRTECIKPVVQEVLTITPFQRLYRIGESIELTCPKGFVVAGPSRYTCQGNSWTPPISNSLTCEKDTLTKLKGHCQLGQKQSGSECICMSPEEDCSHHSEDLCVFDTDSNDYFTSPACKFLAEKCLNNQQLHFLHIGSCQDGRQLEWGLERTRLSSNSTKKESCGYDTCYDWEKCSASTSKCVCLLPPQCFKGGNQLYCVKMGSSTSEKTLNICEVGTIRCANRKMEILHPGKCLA

EC50 [1] | EC50 [2] | EC50 [3] | EC50 [4] | Kd [5] | kon [5] | Binder
0.17 nM |  |  |  |  |  | C601HFKC4 HuG4K (antibody, human IgG4 S228P, kappa, also called 3713; clone 3713) heavy: not shown light: QIVLTQSPATLSLSPGERATLSCRASSSVSYLHWYQQKPGQSPRLWIYDTSKRATGIPARFSGSGSGTDYTLTISSLEPEDFAVYYCQQWTSNPLTFGQGTKLEIKRTVAAPSVFIFPPSDEQLKSGTASVVCLLNNFYPREAKVQWKVDNALQSGNSQESVTEQDSKDSTYSLSSTLTLSKADYEKHKVYACEVTHQGLSSPVTKSFNRGEC
 | 0.43 nM | 0.18 nM | 0.19 nM | 0.36 nM | 690000 M⁻¹ s⁻¹ | MoC601 HuG4K (chimeric C601 antibody) (antibody, human IgG4 S228P, kappa, V domains shown, also called chimeric antibody; chimeric 1C9) VH: QVQLQQSGAELVKPGASVKISCKASGYAFSDYWMNWVKQRPGKGLEWIGQIYPGDDDTNYNGKFKGKATLTADKSSSTAYMQLSSLTSEDSAVYFCAREGYYGYTYVEYFDVWGTGTTVTVSS VL: QIVLTQSPAIMSVSPGEKVTLTCSASSSVSYMHWYQQKSGTSPKRWIYDTSKLASGVPARFSGSGSGTSYSLTISSMEAEDAATYYCQQWTSNPLTFGAGTKLELRR
